Bridge positions count the residues as written; N and C are the ends. Ends that are not written are not given here. Bounds are passed on as bounds.

The data set can be described thus: In-use chemical stability of vaccine emulsions by UPLC/MS after extraction of peptides. The class given is physicochemical. The following applies: for Peptides and related substances (≥0.05%) [Area %]: peak in reconstituted P53-DP-5P; for Related substances (≥0.05%) [Area %]: peak in reconstituted PRAME-DP-5P. As to the method:
For samples showing complete dissolution, an emulsion stability of >2 hours, and a chemical stability of the Drug Product solutions (without additional dilution) of >2 hours, the in-use chemical stability of the vaccine emulsions with Montanide ISA 51 VG was monitored with UPLC/MS. For analysis of chemical stability of the reconstituted and emulsified Drug Products, samples were analyzed at various time points, at least up to 2 hours after dissolution. UPLC/MS analysis was performed according to the method describe above for chemical stability of the Drug Product solution, using an extra sample preparation step for extraction of the peptides from the vaccine emulsion. For sample preparation of emulsified products, the following steps were applied: • Take 300 μL Reconstitution Solution and add this to a 15 mL Greiner tube • Add 100 μL heptane • Add 200 μL of the Drug Product emulsion. Pipet the solution up and down three times. • Vortex the mixture for 30 seconds • Centrifuge the mixture for 5 minutes at 4400 rpm to obtain a two-phase system • With a 20-200 μL pipette, take a 100 μL sample from the bottom layer and transfer to a total recovery UPLC vial. • Analyze with UPLC/UV/MS according to the method described for chemical stability of the Drug Product solutions. Results Solvent Screening for Reconstitution and Emulsification
Analysis of chemical stability was performed by UPLC-MS as described in Example 1, at the section describing methods for analysis of in-use chemical stability of HPV-DP-6P and HPV-DP-7P vaccine emulsions including extraction of the peptides from the vaccine emulsion.
Purity of the Drug Product at different time points was calculated as follows: Purity (%)=100%−Sum of impurities≥0.05% area

Turning to “SEQ ID NO 201: P53-derived synthetic long peptide, component of P53 DP-5P (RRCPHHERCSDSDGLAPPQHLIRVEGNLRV)”, the “Peptides and related substances (≥0.05%) [Area %]” value reads like this: (in-use storage t = 0 h) 12.43 Area %; (in-use storage t = 1 h) 11.73 Area %; (in-use storage t = 2 h) 11.72 Area %; (in-use storage t = 3 h) 11.60 Area %.
For “SEQ ID NO 194: P53-derived synthetic long peptide, component of P53 DP-5P (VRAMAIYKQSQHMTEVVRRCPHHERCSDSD)” the same measures were 13.00 Area %, 12.02 Area %, 11.87 Area % and 11.63 Area %.
Take “SEQ ID NO 203: P53-derived synthetic long peptide, component of P53 DP-5P (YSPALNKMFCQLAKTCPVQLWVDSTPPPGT)”: the “Peptides and related substances (≥0.05%) [Area %]” value (in-use storage t = 0 h) is given as 13.73 Area %; the “Peptides and related substances (≥0.05%) [Area %]” value (in-use storage t = 1 h) is reported as 16.73 Area %; the “Peptides and related substances (≥0.05%) [Area %]” value (in-use storage t = 2 h) is reported as 16.21 Area %; the “Peptides and related substances (≥0.05%) [Area %]” value (in-use storage t = 3 h) came to 15.56 Area %.
With “SEQ ID NO 153: PRAME-derived peptide, component of PRAME DP-5P (LETFKAVLDGLDVLLAQEVRPRRWKLQVLDLRK)”, the “Related substances (≥0.05%) [Area %]” value is listed as 21.89 Area % (in-use storage t = 0 h), 22.70 Area % (in-use storage t = 1 h), 22.51 Area % (in-use storage t = 2 h) and 22.59 Area % (in-use storage t = 3 h).
As for “SEQ ID NO 191: P53-derived synthetic long peptide, component of P53 DP-5P (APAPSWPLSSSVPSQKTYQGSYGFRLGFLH)”, the “Peptides and related substances (≥0.05%) [Area %]” value (in-use storage t = 0 h) stood at 30.37 Area %; the “Peptides and related substances (≥0.05%) [Area %]” value (in-use storage t = 1 h) came to 28.75 Area %; the “Peptides and related substances (≥0.05%) [Area %]” value (in-use storage t = 2 h) was 28.81 Area %; the “Peptides and related substances (≥0.05%) [Area %]” value (in-use storage t = 3 h) is given as 28.81 Area %.
With “SEQ ID NO 155: PRAME-derived peptide, component of PRAME DP-5P (WTVWSGNRASLYSFPEPEAAQPMTKKRKVDGLST)”, the “Related substances (≥0.05%) [Area %]” value is listed as 23.35 Area % (in-use storage t = 0 h), 22.85 Area % (in-use storage t = 1 h), 22.65 Area % (in-use storage t = 2 h) and 22.62 Area % (in-use storage t = 3 h).
As for “SEQ ID NO 193: P53-derived synthetic long peptide, component of P53 DP-5P (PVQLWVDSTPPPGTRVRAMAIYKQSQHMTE)”, the “Peptides and related substances (≥0.05%) [Area %]” value came to 23.90 Area % (in-use storage t = 0 h), 22.38 Area % (in-use storage t = 1 h), 22.31 Area % (in-use storage t = 2 h) and 22.19 Area % (in-use storage t = 3 h).
For the substance “SEQ ID NO 156: PRAME-derived peptide, component of PRAME DP-5P (IPVEVLVDLFLKEGACDELFSYLIEKVKRKKNVLR)”, the “Related substances (≥0.05%) [Area %]” value came to 10.56 Area % (in-use storage t = 0 h), 10.52 Area % (in-use storage t = 1 h), 10.17 Area % (in-use storage t = 2 h) and 9.98 Area % (in-use storage t = 3 h).
As for “SEQ ID NO 203 intramolecular disulfide: related substance: intramolecular disulfide of the peptide set forth in SEQ ID NO: 203 (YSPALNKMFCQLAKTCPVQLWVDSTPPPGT; disulfide 10-16 (inferred))”, the “Peptides and related substances (≥0.05%) [Area %]” value reads like this: (in-use storage t = 0 h) “<”; (in-use storage t = 1 h) 1.05 Area %; (in-use storage t = 2 h) 1.54 Area %; (in-use storage t = 3 h) 1.87 Area %.

The record behind these values is patent publication US12097252B2, “Formulation of a peptide vaccine” (priority 2016, dated 2024).
